Test results taken from article PMC8211282, “The bioactivity of soluble Fas ligand is modulated by key amino acids of its stalk region” (PLoS ONE, 2021).

Legend:
[1] = biological target: T1, wild type soluble Fas ligand (WT-sFasL), long form, amino acids 103 to 281 (human, UniProt P48023 103-281); assay: ELISA; direct binding: wells coated with recombinant human soluble Fas, 5 ug/ml; serial 3-fold dilutions of WT or mut-sFasL, 2 hours; bound sFasL detected with a polyclonal anti-human FasL antibody; settings: both partners purified
T1 construct: human Fas ligand (FasL, CD178), soluble long form, amino acids 103 to 281 of the 281 amino acid protein; cloned in pSecTag/FRT/V5-His-TOPO with stop codons, so the V5-His tag is not expressed ('native form'); Secreted from the pSecTag vector; the oligomeric state was not measured here; also called wild type sFasL; long form of sFasL
T1 sequence (looked up): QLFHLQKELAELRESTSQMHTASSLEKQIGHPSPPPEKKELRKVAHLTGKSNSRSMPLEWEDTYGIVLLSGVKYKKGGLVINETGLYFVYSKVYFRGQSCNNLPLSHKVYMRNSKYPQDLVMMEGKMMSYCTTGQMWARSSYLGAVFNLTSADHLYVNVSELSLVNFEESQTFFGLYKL

[2] = biological target: T2, biotinylated wild type soluble Fas ligand (biotinylated WT-sFasL) (human, UniProt P48023 103-281, biotin (EZ-Link Sulfo-NHS-LC-Biotin), sites not stated); assay: ELISA; competition: wells coated with recombinant human soluble Fas (250 ng/ml); biotinylated WT sFasL (70 ng/ml) mixed with serial 3-fold dilutions of WT or 8-site mutated sFasL, 2 hours; biotin detected with HRP-streptavidin; settings: both partners purified
T2 construct: human Fas ligand (FasL, CD178), soluble long form, amino acids 103 to 281; the same protein as m1, biotinylated after purification; Same construct as m1, chemically biotinylated
T2 sequence (looked up): T1 sequence (looked up)

B1: recombinant human soluble Fas receptor (receptor, UniProt P25445 26-173, looked up)
chain: QVTDINSKGLELRKTVTTVETQNLEGLHHDGQFCHKPCPPGERKARDCTVNGDEPDCVPCQEGKEYTDKAHFSSKCRRCRLCDEGHGLEVEINCTRTQNTKCRCKPNFFCNSTVCEHCDPCTKCEHGIIKECTLTSNTKCKEEGSRSN
notes: human Fas (CD95), recombinant soluble receptor from PeproTech; No catalogue number is printed; also called recombinant human Fas; CD95; source: bought: PeproTech
[1]
  binding result: binds
[2]
  binding result: binds
